Where two headings read alike, the source gives them in different places.
Columns and labels:
Assay in all cases: EMSA
TDP43(WT) [1] = biological target: T1, TDP43(WT) (UniProt Q13148 1-414)
TDP43(WT) [2] = biological target: T1, TDP43(WT); remark: listed apart in the source
TDP43(WT) [3] = biological target: T1, TDP43(WT); remark: listed apart in the source

T1 sequence (Q13148 whole entry): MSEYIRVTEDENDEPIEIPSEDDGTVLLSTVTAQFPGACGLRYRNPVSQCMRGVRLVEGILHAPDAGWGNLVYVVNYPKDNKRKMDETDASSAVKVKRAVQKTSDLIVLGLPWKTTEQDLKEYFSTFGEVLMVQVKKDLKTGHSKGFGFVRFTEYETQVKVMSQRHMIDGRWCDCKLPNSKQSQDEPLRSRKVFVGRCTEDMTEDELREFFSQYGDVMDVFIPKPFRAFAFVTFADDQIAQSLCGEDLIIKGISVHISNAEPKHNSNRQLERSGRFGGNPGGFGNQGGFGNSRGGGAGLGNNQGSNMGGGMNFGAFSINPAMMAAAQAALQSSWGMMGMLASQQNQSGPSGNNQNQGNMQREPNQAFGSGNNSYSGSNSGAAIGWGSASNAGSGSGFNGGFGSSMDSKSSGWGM

Binder | binding result (TDP43(WT) [1]) | further results
ATATATATATATATATATATATAT (ssDNA) [(AT)12] | no binding | –
UGUGUGUGUGUGUGUGUGUGUGUG (ssRNA) [(UG)12] | – | Kd (TDP43(WT) [2]): 0.35 ± 0.1 nM
TGTGTGTGTGTGTGTGTGTGTGTG (ssDNA) [(TG)12] | – | Kd (TDP43(WT) [3]): 7.4 ± 0.34 nM
GCGCGCGCGCGCGCGCGCGCGCGC (ssDNA) [(GC)12] | no binding | –

— paper PMC6499398
